{"source": "patent US20240228648A1", "key": {"[1]": {"molecular_target": "CD38 on the surface of Daudi cells (human) (UniProt P28907)", "experiment": "flow cytometry on Daudi cells, antibody 300 nM"}, "[2]": {"molecular_target": "recombinant biotinylated CD38-avi protein (extracellular domain of human CD38) (human) (UniProt P28907)", "experiment": "competitive ELISA, no competitor: plate coated with Darzalex (2 µg/ml); biotinylated CD38 alone, captured CD38 detected with streptavidin-HRP; replicate 1"}, "[3]": {"molecular_target": "recombinant biotinylated CD38-avi protein (extracellular domain of human CD38) (human) (UniProt P28907)", "experiment": "competitive ELISA: plate coated with Darzalex (2 µg/ml); biotinylated CD38 (0.2 µg/ml) pre-incubated with soluble Darzalex (15 µg/ml), captured CD38 detected with streptavidin-HRP; replicate 1"}, "[4]": {"molecular_target": "recombinant biotinylated CD38-avi protein (extracellular domain of human CD38) (human) (UniProt P28907)", "experiment": "capture ELISA, antibody 0 nM (background), biotinylated CD38-avi 0.5 ug/ml"}, "[5]": {"molecular_target": "CD38 on the surface of Daudi cells (human) (UniProt P28907)", "experiment": "flow cytometry on Daudi cells, antibody 0.206 nM"}, "[6]": {"molecular_target": "CD38 on the surface of Daudi cells (human) (UniProt P28907)", "experiment": "flow cytometry on Daudi cells, antibody 1.85 nM"}, "[7]": {"molecular_target": "CD38 on the surface of Daudi cells (human) (UniProt P28907)", "experiment": "cell-based or functional assay"}, "[8]": {"molecular_target": "CD38 on the surface of Daudi cells (human) (UniProt P28907)", "experiment": "flow cytometry on Daudi cells, anti-human IgG-Alexa647, fit in GraphPad Prism"}, "[9]": {"molecular_target": "recombinant biotinylated CD38-avi protein (extracellular domain of human CD38) (human) (UniProt P28907)", "experiment": "capture ELISA, antibody 0.195 nM, biotinylated CD38-avi 0.5 ug/ml"}, "[10]": {"molecular_target": "recombinant biotinylated CD38-avi protein (extracellular domain of human CD38) (human) (UniProt P28907)", "experiment": "capture ELISA, antibody 12.5 nM, biotinylated CD38-avi 0.5 ug/ml"}, "[11]": {"molecular_target": "CD38 on the surface of Daudi cells (human) (UniProt P28907)", "experiment": "flow cytometry on Daudi cells, antibody 16.7 nM"}, "[12]": {"molecular_target": "recombinant biotinylated CD38-avi protein (extracellular domain of human CD38) (human) (UniProt P28907)", "experiment": "competitive ELISA: plate coated with Darzalex (2 µg/ml); biotinylated CD38 (0.2 µg/ml) pre-incubated with soluble Darzalex (15 µg/ml), captured CD38 detected with streptavidin-HRP; replicate 2"}, "[13]": {"molecular_target": "recombinant biotinylated CD38-avi protein (extracellular domain of human CD38) (human) (UniProt P28907)", "experiment": "capture ELISA, antibody 0.049 nM, biotinylated CD38-avi 0.5 ug/ml"}, "[14]": {"molecular_target": "recombinant biotinylated CD38-avi protein (extracellular domain of human CD38) (human) (UniProt P28907)", "experiment": "capture ELISA: antibody captured by anti-human Fc, biotinylated CD38-avi 0.5 ug/ml, fit in GraphPad Prism"}, "[15]": {"molecular_target": "recombinant biotinylated CD38-avi protein (extracellular domain of human CD38) (human) (UniProt P28907)", "experiment": "competitive ELISA, no competitor: plate coated with Darzalex (2 µg/ml); biotinylated CD38 alone, captured CD38 detected with streptavidin-HRP; replicate 2"}, "[16]": {"molecular_target": "recombinant biotinylated CD38-avi protein (extracellular domain of human CD38) (human) (UniProt P28907)", "experiment": "capture ELISA, antibody 50 nM, biotinylated CD38-avi 0.5 ug/ml"}, "[17]": {"molecular_target": "CD38 on the surface of Daudi cells (human) (UniProt P28907)", "experiment": "flow cytometry on Daudi cells, antibody 5.56 nM"}, "[18]": {"molecular_target": "recombinant biotinylated CD38-avi protein (extracellular domain of human CD38) (human) (UniProt P28907)", "experiment": "capture ELISA, antibody 3.125 nM, biotinylated CD38-avi 0.5 ug/ml"}, "[19]": {"molecular_target": "CD38 on the surface of Daudi cells (human) (UniProt P28907)", "experiment": "flow cytometry on Daudi cells, antibody 50 nM"}, "[20]": {"molecular_target": "CD38 on the surface of Daudi cells (human) (UniProt P28907)", "experiment": "flow cytometry on Daudi cells, antibody 0.069 nM"}, "[21]": {"molecular_target": "recombinant biotinylated CD38-avi protein (extracellular domain of human CD38) (human) (UniProt P28907)", "experiment": "capture ELISA, antibody 0.781 nM, biotinylated CD38-avi 0.5 ug/ml"}, "[22]": {"molecular_target": "recombinant biotinylated CD38-avi protein (extracellular domain of human CD38) (human) (UniProt P28907)", "experiment": "capture ELISA, antibody 0.012 nM, biotinylated CD38-avi 0.5 ug/ml"}, "[23]": {"molecular_target": "CD38 on the surface of Daudi cells (human) (UniProt P28907)", "experiment": "flow cytometry on Daudi cells, antibody 1.617 nM (so in the source)"}}}
{"substance": "Darzalex (antibody)", "values": [{"measurement": "Mean fluorescence", "setting": "[1]", "value": "1.29e+06"}, {"measurement": "OD450", "setting": "[2]", "value": 0.377}, {"measurement": "OD450", "setting": "[3]", "value": 0.168}, {"measurement": "OD450", "setting": "[4]", "value": 0.143, "unit": "OD450"}, {"measurement": "Mean fluorescence", "setting": "[5]", "value": 46700}, {"measurement": "Mean fluorescence", "setting": "[6]", "value": 574000}, {"measurement": "ADCC activity (luciferase) on Daudi cells at 0.0015 nM antibody", "setting": "[7]", "value": 0.12}, {"measurement": "ADCC activity (luciferase) on Daudi cells at 0.006 nM antibody", "setting": "[7]", "value": 1.32}, {"measurement": "ADCC activity (luciferase) on Daudi cells at 0.0244 nM antibody", "setting": "[7]", "value": 3.88}, {"measurement": "ADCC activity (luciferase) on Daudi cells at 0.098 nM antibody", "setting": "[7]", "value": 14.7}, {"measurement": "ADCC activity (luciferase) on Daudi cells at 0.39 nM antibody", "setting": "[7]", "value": 40.9}, {"measurement": "ADCC activity (luciferase) on Daudi cells at 1.56 nM antibody", "setting": "[7]", "value": 57.2}, {"measurement": "ADCC activity (luciferase) on Daudi cells at 6.25 nM antibody", "setting": "[7]", "value": 61}, {"measurement": "ADCC activity (luciferase) on Daudi cells at 25 nM antibody", "setting": "[7]", "value": 64.1}, {"measurement": "ADCC activity (luciferase) on Daudi cells at 100 nM antibody", "setting": "[7]", "value": 66.5}, {"measurement": "CDC: % live Daudi cells (P1) at 0.078 nM antibody", "setting": "[7]", "value": 63.9, "unit": "%"}, {"measurement": "CDC: % live Daudi cells (P1) at 0.156 nM antibody", "setting": "[7]", "value": 75.2, "unit": "%"}, {"measurement": "CDC: % live Daudi cells (P1) at 0.3125 nM antibody", "setting": "[7]", "value": 70.6, "unit": "%"}, {"measurement": "CDC: % live Daudi cells (P1) at 0.625 nM antibody", "setting": "[7]", "value": 67.4, "unit": "%"}, {"measurement": "CDC: % live Daudi cells (P1) at 1.25 nM antibody", "setting": "[7]", "value": 55.6, "unit": "%"}, {"measurement": "CDC: % live Daudi cells (P1) at 2.5 nM antibody", "setting": "[7]", "value": 47.6, "unit": "%"}, {"measurement": "CDC: % live Daudi cells (P1) at 5 nM antibody", "setting": "[7]", "value": 40.9, "unit": "%"}, {"measurement": "CDC: % live Daudi cells (P1) at 10 nM antibody", "setting": "[7]", "value": 32.3, "unit": "%"}, {"measurement": "Kd", "setting": "[8]", "value": 3.26, "unit": "nM"}, {"measurement": "OD450", "setting": "[9]", "value": 0.135, "unit": "OD450"}, {"measurement": "OD450", "setting": "[10]", "value": 0.164, "unit": "OD450"}, {"measurement": "Mean fluorescence", "setting": "[11]", "value": "1.34e+06"}, {"measurement": "OD450", "setting": "[12]", "value": 0.176}, {"measurement": "OD450", "setting": "[13]", "value": 0.147, "unit": "OD450"}, {"measurement": "Kd", "setting": "[14]", "value": 1.64, "unit": "nM"}, {"measurement": "OD450", "setting": "[15]", "value": 0.385}, {"measurement": "OD450", "setting": "[16]", "value": 0.171, "unit": "OD450"}, {"measurement": "Mean fluorescence", "setting": "[17]", "value": "1.09e+06"}, {"measurement": "OD450", "setting": "[18]", "value": 0.172, "unit": "OD450"}, {"measurement": "Mean fluorescence", "setting": "[19]", "value": "1.31e+06"}, {"measurement": "Mean fluorescence", "setting": "[20]", "value": 9320}, {"measurement": "OD450", "setting": "[21]", "value": 0.145, "unit": "OD450"}, {"measurement": "OD450", "setting": "[22]", "value": 0.135, "unit": "OD450"}, {"measurement": "Mean fluorescence", "setting": "[23]", "value": 158000}]}
